Tests used:
[1] = biological target: Thra, P63059-2
[2] = biological target: Thra, P63059-1
[3] = biological target: Thra, P63059-2; remark: listed apart in the source

Chain of Transforming acidic coiled-coil-containing protein 1 (Homo sapiens), O75410-9 L580A;I581A (O75410 other isoform, or with tags, fused parts or gaps L580A;I581A): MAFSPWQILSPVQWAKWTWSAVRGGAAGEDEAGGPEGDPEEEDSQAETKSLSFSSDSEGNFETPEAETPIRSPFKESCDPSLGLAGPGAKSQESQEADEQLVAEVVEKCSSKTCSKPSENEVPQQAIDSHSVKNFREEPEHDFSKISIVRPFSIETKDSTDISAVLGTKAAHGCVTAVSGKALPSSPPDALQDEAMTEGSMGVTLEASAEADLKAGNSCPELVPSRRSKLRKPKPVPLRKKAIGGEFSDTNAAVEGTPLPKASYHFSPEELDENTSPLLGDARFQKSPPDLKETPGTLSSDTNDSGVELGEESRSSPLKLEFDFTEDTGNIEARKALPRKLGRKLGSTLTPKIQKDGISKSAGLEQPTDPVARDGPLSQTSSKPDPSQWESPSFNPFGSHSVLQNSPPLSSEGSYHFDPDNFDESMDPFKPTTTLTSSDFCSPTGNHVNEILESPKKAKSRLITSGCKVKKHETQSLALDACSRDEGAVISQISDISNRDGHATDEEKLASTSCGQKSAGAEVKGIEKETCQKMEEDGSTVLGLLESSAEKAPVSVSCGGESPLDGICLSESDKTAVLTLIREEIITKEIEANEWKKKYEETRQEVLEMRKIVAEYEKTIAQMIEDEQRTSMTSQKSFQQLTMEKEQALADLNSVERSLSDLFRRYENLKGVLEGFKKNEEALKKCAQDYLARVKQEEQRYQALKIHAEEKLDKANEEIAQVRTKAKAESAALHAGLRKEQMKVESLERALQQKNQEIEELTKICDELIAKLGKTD
Chain of Thra, P63059-2 (P63059 other isoform, or with tags, fused parts or gaps): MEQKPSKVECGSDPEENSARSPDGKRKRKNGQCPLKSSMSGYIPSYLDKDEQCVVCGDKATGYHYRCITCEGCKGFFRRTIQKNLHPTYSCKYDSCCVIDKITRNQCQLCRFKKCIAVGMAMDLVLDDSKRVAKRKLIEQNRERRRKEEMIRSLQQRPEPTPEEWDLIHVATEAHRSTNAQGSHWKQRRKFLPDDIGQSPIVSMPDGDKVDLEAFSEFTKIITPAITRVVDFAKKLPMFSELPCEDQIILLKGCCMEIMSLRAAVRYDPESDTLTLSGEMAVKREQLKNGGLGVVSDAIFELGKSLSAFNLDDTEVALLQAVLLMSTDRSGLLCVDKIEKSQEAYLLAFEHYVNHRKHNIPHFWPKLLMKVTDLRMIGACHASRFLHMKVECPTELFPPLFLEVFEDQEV
Chain of Transforming acidic coiled-coil-containing protein 1 (Homo sapiens), O75410-10 L170A;I171A (O75410 other isoform, or with tags, fused parts or gaps L170A;I171A): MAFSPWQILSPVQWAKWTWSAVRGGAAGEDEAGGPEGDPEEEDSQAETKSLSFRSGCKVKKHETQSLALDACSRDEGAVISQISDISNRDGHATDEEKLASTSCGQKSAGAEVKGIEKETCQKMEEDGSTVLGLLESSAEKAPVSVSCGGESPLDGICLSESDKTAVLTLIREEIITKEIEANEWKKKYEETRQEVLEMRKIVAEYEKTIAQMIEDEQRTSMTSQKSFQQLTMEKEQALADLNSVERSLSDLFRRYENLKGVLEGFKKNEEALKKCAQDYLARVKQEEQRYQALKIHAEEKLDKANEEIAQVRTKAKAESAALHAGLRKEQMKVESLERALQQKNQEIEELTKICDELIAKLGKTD
Chain of Thra, P63059-1 (P63059 whole entry): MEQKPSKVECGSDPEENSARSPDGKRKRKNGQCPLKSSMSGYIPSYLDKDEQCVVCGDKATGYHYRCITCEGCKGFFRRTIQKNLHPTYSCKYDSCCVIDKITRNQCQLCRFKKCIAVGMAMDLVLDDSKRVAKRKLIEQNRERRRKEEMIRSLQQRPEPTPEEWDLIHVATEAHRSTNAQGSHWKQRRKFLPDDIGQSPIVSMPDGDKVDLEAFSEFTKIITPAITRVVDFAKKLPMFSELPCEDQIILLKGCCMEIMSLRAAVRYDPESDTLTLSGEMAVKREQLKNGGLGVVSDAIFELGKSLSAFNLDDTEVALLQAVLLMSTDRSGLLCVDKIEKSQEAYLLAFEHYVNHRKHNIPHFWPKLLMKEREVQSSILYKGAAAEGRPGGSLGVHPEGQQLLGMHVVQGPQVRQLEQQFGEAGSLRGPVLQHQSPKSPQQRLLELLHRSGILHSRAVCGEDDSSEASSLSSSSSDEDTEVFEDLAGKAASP

Substance	effect of a mutation on the interaction [1]	effect of a mutation on the interaction [2]	effect of a mutation on the interaction [3]
Transforming acidic coiled-coil-containing protein 1 (Homo sapiens), O75410-9 L580A;I581A	decreasing interaction strength	disrupting interaction strength	
Transforming acidic coiled-coil-containing protein 1 (Homo sapiens), O75410-10 L170A;I171A			disrupting interaction strength
